# Source: paper PMC6589164
# B1: recombinant human cardiac (ventricular) myosin regulatory light chain, wild type (natural protein)
# chain: MAPKKAKKRAGGANSNVFSMFEQTQIQEFKEAFTIMDQNRDGFIDKNDLRDTFAALGRVNVKNEEIDEMIKEAPGPINFTVFLTMFGEKLKGADPEETILNAFKVFDPEGKGVLKADYVREMLTTQAERFSKEEVDQMFAAFPPDVTGNLDYKNLVHIITHGEEKD
# B2: recombinant human cardiac (ventricular) myosin regulatory light chain, A13T mutant (natural protein)
# chain: MAPKKAKKRAGGTNSNVFSMFEQTQIQEFKEAFTIMDQNRDGFIDKNDLRDTFAALGRVNVKNEEIDEMIKEAPGPINFTVFLTMFGEKLKGADPEETILNAFKVFDPEGKGVLKADYVREMLTTQAERFSKEEVDQMFAAFPPDVTGNLDYKNLVHIITHGEEKD
# Key:
# [1] = biological target: pyrene-labelled rabbit skeletal F-actin (rabbit) (UniProt P68135); experiment: other fluorescence titration
# [2] = biological target: RLC-depleted porcine cardiac myosin (porcine) (UniProt P79293); experiment: co-sedimentation
Molecule,Kd [1],stoichiometry N [1],Kd [2]
A13T-RLC-reconstituted porcine cardiac myosin (from UniProt P79293 1-1935; P10916 1-166) (complex),24.4 nM,0.9,
WT-RLC-reconstituted porcine cardiac myosin (from UniProt P79293 1-1935; P10916 1-166) (complex),18.9 nM,0.8,
B1,,,2920 nM
B2,,,8140 nM
